Reference: the RNAGym collection of RNA variant scans (doi:10.1093/molbev/msab373)

B1: Azoarcus group I ribozyme (parent)
chain: GUGCCUUGCGCCGGGAAACCACGCAAGGGAUGGUGUCAAAUUCGGCGAAACCUAAGCGCCCGCCCGGGCGUAUGGCAACGCCGAGCCAAGCUUCGGCGCCUGCGCCGAUGAAGGUGUAGAGACUAGACGGCACCCACCUAAGGCAAACGCUAUGGUGAAGGCAUAGUCCAGGGAGUGGCGAAAGUCACACAAACCGG

Variants of: B1
Test: reverse-splicing fitness (ratio to wild type); higher = more active; in vitro selection; Mg2+ level not given
Method in brief: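 An in vitro group I ribozyme library with randomized positions was T7-transcribed and gel-purified. In triplicate, 10 pmol RNA in EPPS pH 7.5 was reacted with 50 pmoles of a 30-nt RNA substrate for 1 h at 37 °C across several added MgCl2 levels (1–48 mM), then stopped with EDTA. Products were reverse transcribed from a substrate-complementary primer, PCR-amplified and sequenced (HiSeq 4000). Fitness is a variant's read proportion after selection over that before, normalised to wild type.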

Variant | reverse-splicing fitness
C82G A111C A145G C150U C169U U176A | 0.0129
C82G A111C A145G C150U C169U U176C | 0.0127
C82G A111C A145G C150A C169G U176C | 0.0256
C82G A111C A145G C150A C169G U176G | 0.00825
C82G A111C A145G C150A C169G U176A | 0.0149
C82G A111G | 0.411
C82G A111C A145G C150A U176A | 0.0244
C82G A111C A145G C150A U176C | 0.0396
C82G A111C A145G C150A U176G | 0.0116
C82G A111G A120C A145C C150A C169G U176C | 0.0173
C82G A111G A120C A145C C150A C169G U176A | 0.026
C82G A111G A120C A145C C150A C169G U176G | 0.00633
C82G A111C A145G C150A C169A U176C | 0.0204
C82G A111C A145G C150A C169A U176G | 0.0086
C82G A111C A145G C150A C169A U176A | 0.0179
C82G A111C A145U C150G C169G U176G | 0.00802
C82G A111C A145U C150G C169G U176C | 0.00714
C82G A111C A145U C150G C169G U176A | 0.00806
C82G A111C A145U C150A C169A U176G | 0.00941
C82G A111C A145U C150A C169A U176C | 0.0134
C82G A111C A145U C150A C169A U176A | 0.0135

Variant | reverse-splicing fitness
C82G A111G A120C A145G C150A C169U U176C | 0.015
C82G A111G A120C A145G C150A C169U U176G | 0.00817
C82G A111G A120C A145G C150A C169U U176A | 0.0153
C82G A111G A120C A145C C150G U176A | 0.00574
C82G A111G A120C A145C C150G U176C | 0.00886
C82G A111G A120C A145C C150G U176G | 0.0035
C82G A111C C150G C169U U176A | 0.00763
C82G A111C C150G C169U U176C | 0.0127
C82G A111C C150G C169U U176G | 0.00599
C82G A111G A120C A145G C150A C169G U176C | 0.0237
C82G A111G A120C A145G C150A C169G U176A | 0.02
C82G A111G A120C A145G C150A C169G U176G | 0.00696
C82G A111C C150A | 0.0254
C82G A111C C150U | 0.143
C82G A111C C150G | 0.0174
C82G A111C C169A U176G | 0.00611
C82G A111C C169A U176A | 0.0198
C82G A111C C169A U176C | 0.023
C82G A111C A145C C169A U176C | 0.015
C82G A111C A145C C169A U176A | 0.0184
C82G A111C A145C C169A U176G | 0.00713

Variant | reverse-splicing fitness
C82G A111C A145G C169A | 0.0104
C82G A111C A145G C169G | 0.00916
C82G A111C A145G C169U | 0.0141
C82G A111G A120C A145G C150U C169A U176A | 0.0156
C82G A111G A120C A145G C150U C169A U176G | 0.00689
C82G A111G A120C A145G C150U C169A U176C | 0.0173
C82G A111C A145G C169A U176A | 0.0222
C82G A111C A145G C169A U176G | 0.00852
C82G A111C A145G C169A U176C | 0.0311
C82G A111C A145G C150G | 0.0266
C82G A111C A145G C150U | 0.205
C82G A111C A145G C150A | 0.0364
C82G A111C C150U U176C | 0.0801
C82G A111C C150U U176A | 0.0699
C82G A111C C150U U176G | 0.0217
C82G A111C U176C | 0.139
C82G A111C U176G | 0.0517
C82G A111C U176A | 0.133
C82G A111G A120C A145C C169A | 0.00695
C82G A111G A120C A145C C169U | 0.0144
C82G A111G A120C A145C C169G | 0.00871

Variant | reverse-splicing fitness
C82G A111G A120C A145G C150G | 0.0123
C82G A111G A120C A145G C150A | 0.0184
C82G A111G A120C A145G C150U | 0.0625
C82G A111G A120C A145C C169A U176C | 0.0106
C82G A111G A120C A145C C169A U176A | 0.0154
C82G A111G A120C A145C C169A U176G | 0.00459
C82G A111C A145U C150G C169U U176A | 0.00811
C82G A111C A145U C150G C169U U176C | 0.0123
C82G A111C A145U C150G C169U U176G | 0.00704
C82G A111G A120C A145G C150G C169U U176C | 0.0142
C82G A111G A120C A145G C150G C169U U176A | 0.0118
C82G A111G A120C A145G C150G C169U U176G | 0.00784
C82G A111C A145U C150U C169G U176C | 0.0196
C82G A111C A145U C150U C169G U176G | 0.00868
C82G A111C A145U C150U C169G U176A | 0.0124
C82G A111C C150A C169G | 0.00787
C82G A111C C150A C169A | 0.011
C82G A111C C150A C169U | 0.0119
C82G A111C A145G C150G C169A U176G | 0.00829
C82G A111C A145G C150G C169A U176C | 0.0129
C82G A111C A145G C150G C169A U176A | 0.0115
